Measured values reported in patent publication US20250170285A1, “RADIOLABELLED OLIGONUCLEOTIDES AND PROCESS FOR THEIR PREPARATION” (Hoffmann-La Roche Inc., priority 2018, published 2025).
Where two headings read alike, the source gives them in different places.

Experiments:
[1] = Tissue exposure study: liver concentration of unlabeled LNAs by LC-MS/MS; conditions: analyzed by LC-MS/MS, FIG. 1
Experimental: (§1) Serial dilutions were made from stock solution (approx. 1 mg/mL in PCR grade water, the exact concentration of the stock solution will be quantified with the spectro-photometric device Nanodrop (Thermo Scientific) based on the extinction coefficient at 260 nm) to generate working solutions in water from approx. 100 ng/mL up to approx. 250000 ng/mL.
(§2) Calibration standards and quality control samples (freshly prepared in plasma, 50 μL) were treated for protein denaturation with 150 μL of 4 M guanidine thiocyanate after addition of the internal standard. After vigorously mixing (20 min at 1600 rpm), 200 μL of a water/hexafluoroisopropanol/diisopropylethylamine solution (100:4:0.2, v/v/v) were added, followed by mixing (15 min at 1500 rpm). Then a clean-up step was performed by means of solid-phase-extraction cartridges (Waters, OASIS HLB 5 mg, 30 μm) after elution and evaporation to dryness (30-45 min at +40° C.) the samples were reconstituted in 200 μL of mobile phase (water/methanol/hexafluoroisopropanol/diisopropylethylamine (95/5/1/0.2, v/v/v/v)). After vortex mixing (10 min at 1500 rpm), an aliquot (20 μL) was injected into a LC-MS/MS system (50 μL loop).
(§3) A Shimadzu 30ADXR pump was used, equipped with a Waters Acquity C18 column (50×2.1 mm) at 60° C. […]

[2] = in vivo
Experimental: as §1, §2, §3

[3] = Single dose PK experiment: liver concentration of tritium labeled LNAs by LSC; format: in vivo; conditions: single dose 1 mg/kg; liver 24, 72 and 336 h after dosing; radioactivity by LSC, FIG. 2
Experimental: A single dose PK experiment with Example 3.b ([^3H]-compound 2 based on conjugate 4) and Example 3.c ([^3H]-compound 3 based on conjugate 7) at 1 mg/kg was done. LNAs were analyzed in liver 24, 72 and 336 h after dosing. The study will confirm the feasibility of oligonucleotides with radioactive conjugation.
A Packard Tri-carb 3100TR was used for LSC analysis.
In FIG. 2 the liver concentration of the tritium labeled compounds of Example 3.b (dotted line) and Example 3.c (continuous line) have been analyzed by LSC.

Substance: 5′-G*A*G*t*t*a*c*t*t*g*c*c*a*A*C*T*-3′ (GAGTTACTTGCCAACT; all phosphorothioate, sugars by position and methylation of C not given here; further chemistry not fully specified) [LNA study compound A]
- liver concentration (liver uptake) [1]: lower level of uptake

Substance: 5′-GN2-C6-ca G*A*G*t*t*a*c*t*t*g*c*c*a*A*C*T*-3′ (CAGAGTTACTTGCCAACT; 5'-GalNAc2-C6 conjugate, LNA and phosphorothioate, case key not given here, further chemistry not given here) [GalNAc LNA study compound A]
- liver concentration (liver uptake) [2]: high initial uptake in the liver plasma and a normal decrease over the time

Substance: 5′-GN2-C6-caG*A*G*t*t*a*c*t*t*g*c*c*a*A*C*T*-C6SH-[^3H]-NEM [Example 3.b]
- liver concentration (liver uptake) [3]: equivalent liver uptake as a therapeutic GalNAc LNA
